The values below come from the Immune Epitope Database (IEDB).

For orientation: Kd means the concentration at which binding is half-saturated.

Some targets named below: HLA-A*03:01; HLA-A*11:01; HLA-A*31:01; HLA-A*33:01; HLA-A*68:01.
What all share (test): IEDB peptide-MHC binding, purified MHC/competitive/radioactivity; filed as Kd, often an IC50 or EC50 that approximates it; ≥ and ≤ were set here for values at or beyond the usual limits of such assays
Setting [1] is: source organism: Vaccinia virus WR.
Setting [2] is: source organism: SARS coronavirus Tor2.
[3] abbreviates: source organism: Lymphocytic choriomeningitis virus (strain Armstrong).

As for QLLRLMADK, the Kd in the test with HLA-A*03:01 (setting [1]) was 61.9 nM; with HLA-A*11:01 (setting [1]), 349 nM; with HLA-A*31:01 (setting [1]) it was 2570 nM; with HLA-A*33:01 (setting [1]), at least 46200 nM; in the test with HLA-A*68:01 (setting [1]) it was at least 21900 nM.

Consider KSINKVYGR, for which the Kd was determined as 368 nM with HLA-A*03:01 (setting [1]); 2.38 nM in the test with HLA-A*11:01 (setting [1]); 1.04 nM with HLA-A*31:01 (setting [1]); 3410 nM in the test with HLA-A*33:01 (setting [1]); 15.4 nM in the test with HLA-A*68:01 (setting [1]).

Turning to YTYDRVDIY, the Kd with HLA-A*03:01 (setting [1]) was 741 nM; in the test with HLA-A*11:01 (setting [1]), 0.341 nM; with HLA-A*31:01 (setting [1]), 9370 nM; in the test with HLA-A*33:01 (setting [1]) it was at least 36600 nM; with HLA-A*68:01 (setting [1]), 1.91 nM.

Regarding RSKQKIGDLR, the Kd with HLA-A*03:01 (setting [1]) is 3830 nM; with HLA-A*11:01 (setting [1]), 14000 nM; with HLA-A*31:01 (setting [1]), 48.3 nM; in the test with HLA-A*33:01 (setting [1]) it was 12700 nM; in the test with HLA-A*68:01 (setting [1]) it was 1300 nM.

For RFVEELLHR, the equilibrium dissociation constant (Kd) worked out at 2180 nM with HLA-A*03:01 (setting [1]); 3450 nM with HLA-A*11:01 (setting [1]); 19.7 nM in the test with HLA-A*31:01 (setting [1]); 686 nM in the test with HLA-A*33:01 (setting [1]); 227 nM in the test with HLA-A*68:01 (setting [1]).

On to PLFDFVNEK, for which the Kd with HLA-A*03:01 (setting [1]) came to 1940 nM; with HLA-A*11:01 (setting [1]), 413 nM; in the test with HLA-A*31:01 (setting [1]) it was 1220 nM; with HLA-A*33:01 (setting [1]), 5520 nM; with HLA-A*68:01 (setting [1]) it was 222 nM.

With FAEESYTYYY, the Kd in the test with HLA-A*03:01 (setting [1]) was at least 26300 nM; in the test with HLA-A*11:01 (setting [1]) it was 916 nM; with HLA-A*31:01 (setting [1]), at least 70000 nM; in the test with HLA-A*33:01 (setting [1]), at least 70000 nM; in the test with HLA-A*68:01 (setting [1]), 543 nM.

As to VFGSTMNNK, the Kd was 4340 nM with HLA-A*03:01 (setting [2]); 2510 nM in the test with HLA-A*11:01 (setting [2]); 2630 nM with HLA-A*31:01 (setting [2]); at least 43700 nM in the test with HLA-A*33:01 (setting [2]); 4460 nM with HLA-A*68:01 (setting [2]).

YSRVNHAKY: the dissociation constant Kd with HLA-A*03:01 (setting [1]) was 1530 nM; with HLA-A*11:01 (setting [1]), at least 42200 nM; with HLA-A*31:01 (setting [1]), at least 73700 nM; with HLA-A*33:01 (setting [1]), at least 77700 nM; with HLA-A*68:01 (setting [1]) it was 1190 nM.

For TAKVIKLVK, the Kd is at least 52300 nM with HLA-A*03:01 (setting [1]); 985 nM with HLA-A*11:01 (setting [1]); 19900 nM with HLA-A*31:01 (setting [1]); at least 77700 nM with HLA-A*33:01 (setting [1]); 4910 nM with HLA-A*68:01 (setting [1]).

Consider DAKNDDWKKY, for which the Kd with HLA-A*03:01 (setting [1]) is at least 70100 nM; with HLA-A*11:01 (setting [1]), at least 69800 nM; with HLA-A*31:01 (setting [1]) it was at least 70000 nM; in the test with HLA-A*33:01 (setting [1]), at least 70000 nM; with HLA-A*68:01 (setting [1]) it was at least 70200 nM.

Take DVDTSASEIK: the Kd is 4430 nM with HLA-A*03:01 (setting [1]); 2630 nM with HLA-A*11:01 (setting [1]); at least 27100 nM in the test with HLA-A*31:01 (setting [1]); 18800 nM with HLA-A*33:01 (setting [1]); 135 nM with HLA-A*68:01 (setting [1]).

Regarding ELGFNYPEY, the dissociation constant (Kd) was at least 39700 nM with HLA-A*03:01 (setting [1]); at least 66700 nM with HLA-A*11:01 (setting [1]); at least 77900 nM in the test with HLA-A*31:01 (setting [1]); at least 77700 nM with HLA-A*33:01 (setting [1]); 8850 nM in the test with HLA-A*68:01 (setting [1]).

For the sequence ITGNNIILSK, the Kd with HLA-A*03:01 (setting [1]) was 3.51 nM; with HLA-A*11:01 (setting [1]) it was 0.713 nM; with HLA-A*31:01 (setting [1]), 2460 nM; in the test with HLA-A*33:01 (setting [1]) it was 2000 nM; in the test with HLA-A*68:01 (setting [1]), 7.62 nM.

For LFYTFAISY, the dissociation constant (Kd) with HLA-A*03:01 (setting [1]) was at least 48400 nM; in the test with HLA-A*11:01 (setting [1]), at least 20100 nM; in the test with HLA-A*31:01 (setting [1]), at least 77900 nM; with HLA-A*33:01 (setting [1]), at least 77700 nM; in the test with HLA-A*68:01 (setting [1]), at least 43300 nM.

With IFNEDTSYY, the Kd with HLA-A*03:01 (setting [1]) is 6000 nM; with HLA-A*11:01 (setting [1]) it was 6890 nM; with HLA-A*31:01 (setting [1]), at least 77900 nM; with HLA-A*33:01 (setting [1]), at least 77700 nM; in the test with HLA-A*68:01 (setting [1]), at least 20000 nM.

In the case of NSKYSYELY, the Kd with HLA-A*03:01 (setting [1]) was at least 33000 nM; in the test with HLA-A*11:01 (setting [1]), 10400 nM; with HLA-A*31:01 (setting [1]) it was at least 51100 nM; in the test with HLA-A*33:01 (setting [1]), at least 46700 nM; with HLA-A*68:01 (setting [1]) it was 10.2 nM.

Regarding ELYDTSPTKR, the Kd is 756 nM with HLA-A*03:01 (setting [1]); 10500 nM in the test with HLA-A*11:01 (setting [1]); 1850 nM in the test with HLA-A*31:01 (setting [1]); 142 nM in the test with HLA-A*33:01 (setting [1]); 1.52 nM with HLA-A*68:01 (setting [1]).

As to FLRSIAMLK, the Kd with HLA-A*03:01 (setting [1]) stood at 2.04 nM; with HLA-A*11:01 (setting [1]), 213 nM; with HLA-A*31:01 (setting [1]), 153 nM; with HLA-A*33:01 (setting [1]) it was 611 nM; in the test with HLA-A*68:01 (setting [1]) it was 107 nM.

For the sequence ILKINSVKY, the dissociation constant (Kd) in the test with HLA-A*03:01 (setting [1]) turned out to be 831 nM; in the test with HLA-A*11:01 (setting [1]), 16200 nM; in the test with HLA-A*31:01 (setting [1]) it was 1310 nM; with HLA-A*33:01 (setting [1]) it was 12900 nM; with HLA-A*68:01 (setting [1]), 1820 nM.

As for RCHDHYLCRH, the equilibrium dissociation constant (Kd) in the test with HLA-A*03:01 (setting [3]) is at least 46800 nM; in the test with HLA-A*11:01 (setting [3]) it was at least 69700 nM; in the test with HLA-A*31:01 (setting [3]), 14400 nM; with HLA-A*33:01 (setting [3]), at least 70000 nM; with HLA-A*68:01 (setting [3]), at least 70100 nM.

For the sequence ALFMYYAKR, the Kd in the test with HLA-A*03:01 (setting [1]) is 12.3 nM; with HLA-A*11:01 (setting [1]), 66.1 nM; in the test with HLA-A*31:01 (setting [1]), 0.449 nM; with HLA-A*33:01 (setting [1]), 32.5 nM; with HLA-A*68:01 (setting [1]), 943 nM.

Regarding LSEYETMVDY, the Kd with HLA-A*03:01 (setting [1]) was 5270 nM; with HLA-A*11:01 (setting [1]), 16000 nM; in the test with HLA-A*31:01 (setting [1]), at least 70000 nM; in the test with HLA-A*33:01 (setting [1]) it was at least 70000 nM; in the test with HLA-A*68:01 (setting [1]) it was at least 70200 nM.
